According to the supplement of paper PMC7877785:
± gives the uncertainty stated by the source.

Test: self-splicing fitness, log relative to wild type (ln ratio); higher = more splicing; Tetrahymena group I intron in knt gene, E. coli kanamycin selection, DiMSum; sequences stand for … in CUCUCU…GGAGGGAAAAGUUAUCAGGCAUGCACCUGGUAGCUAGUCUUUAAACCAAUAGAUUGCAUCGGUUUAAAAGGCAAGACCGUCAAAUUGCGGGAAAGGGGUCAACAGCCGUUCAGUACCAAGUCUCAGGGGAAACUUUGAGAUGGCCUUGCAAAGGGUAUGGUAAUAAGCUGACGGACAUGGUCCUAACCACGCAGCCAAGUCCUAAGUCAACAGAUCUUCUGUUGAUAUGGAUGCAGUUCACAGACUAAAUGUCGGUCGGGGAAGAUGUAUUCUUCUCAUAAGAUAUAGUCGGACCUCUCCUUAAUGGGAGCUAGCGGAUGAAGUGAUGCAACACUGGAGCCGCUGGGAACUAAUUUGUAUGCGAAAGUAUAUUGAUUAGUUUUGGAGUACUCGUGGUCG
In short: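 DiMSum derived fitness as the error-weighted combination of fold changes across replicates, kanamycin versus no kanamycin, normalised to wild type. E. coli BL21(DE3) held the library, which randomised all eight P1ex-region intron nucleotides within the knt kanamycin-resistance gene on pET-22b(+). Six replicate transformations grew overnight at 37°C or 30°C on LB agar with or without 25 μg/mL kanamycin, also containing 100 μg/mL carbenicillin, 50 μM IPTG and 0.2% rhamnose, and pooled colonies were amplicon-sequenced on an Illumina HiSeq 2500.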

Row | Sequence | self-splicing fitness (ln) (30 °C) | self-splicing fitness (ln) (37 °C)
1 | CCAUAGCAAUAUUACGCUCA | -3.11 ± 0.18 | -2.16 ± 0.25
2 | GAUUAGCAAUAUUACGCAGG | – | -0.28 ± 0.27
3 | UGGCAGCAAUAUUACGAGGG | -3.44 ± 0.23 | -2.73 ± 0.25
4 | CCCGAGCAAUAUUACGCAAC | – | -2.23 ± 0.34
5 | UAGAAGCAAUAUUACGAUUC | -2.82 ± 0.17 | -2.06 ± 0.21
6 | AGCGAGCAAUAUUACGUGCC | -3.37 ± 0.41 | -0.439 ± 0.22
7 | UCUUAGCAAUAUUACGGAGA | – | -2.76 ± 0.38
8 | AGGAAGCAAUAUUACGCGUU | -2.55 ± 0.17 | -1.01 ± 0.17
9 | UUAUAGCAAUAUUACGUAAA | -1.34 ± 0.19 | -1.58 ± 0.22
10 | GCGAAGCAAUAUUACGCUAA | -2.54 ± 0.28 | -2.21 ± 0.2
11 | UCCAAGCAAUAUUACGGCUA | -1.98 ± 0.14 | -0.476 ± 0.11
12 | AUUAAGCAAUAUUACGAUAA | -1.48 ± 0.12 | -0.391 ± 0.14
13 | AAGCAGCAAUAUUACGUAGC | -3.19 ± 0.15 | -1.94 ± 0.16
14 | AUAUAGCAAUAUUACGCAGU | -2.86 ± 0.25 | -3.1 ± 0.33
15 | UCUCAGCAAUAUUACGGUGG | -2.24 ± 0.14 | -2.31 ± 0.18
16 | GAACAGCAAUAUUACGAUGC | -0.47 ± 0.079 | 0.126 ± 0.12
17 | UCGGAGCAAUAUUACGCUUA | -2.33 ± 0.33 | -1.89 ± 0.41
18 | UCCUAGCAAUAUUACGCCUC | -2.62 ± 0.27 | -2.29 ± 0.39
19 | UUGAAGCAAUAUUACGAGUA | -1.83 ± 0.077 | -0.59 ± 0.085
20 | ACACAGCAAUAUUACGUAGU | -2.48 ± 0.077 | -1.71 ± 0.088
21 | CUACAGCAAUAUUACGUCAU | -4.33 ± 0.22 | -3.72 ± 0.19
22 | UUAUAGCAAUAUUACGCCAG | -1.64 ± 0.25 | -0.566 ± 0.27
23 | AGUCAGCAAUAUUACGCCCC | 0.28 ± 0.17 | 0.672 ± 0.33
24 | AACGAGCAAUAUUACGUGCU | -3.09 ± 0.21 | -2.16 ± 0.28
25 | ACGGAGCAAUAUUACGGCUU | -3.11 ± 0.4 | –
26 | GGCCAGCAAUAUUACGUCAA | -1.34 ± 0.31 | -2.61 ± 0.35

Row | Sequence | self-splicing fitness (ln) (30 °C) | self-splicing fitness (ln) (37 °C)
27 | AAGUAGCAAUAUUACGUUCG | -1.35 ± 0.13 | -0.681 ± 0.17
28 | CUUUAGCAAUAUUACGGUGG | -1.96 ± 0.1 | -0.665 ± 0.11
29 | AUGCAGCAAUAUUACGUGCG | -0.943 ± 0.061 | -0.294 ± 0.076
30 | GACCAGCAAUAUUACGUCGC | -1.89 ± 0.1 | -0.411 ± 0.13
31 | GACAAGCAAUAUUACGUCUU | -2.08 ± 0.082 | -1.05 ± 0.085
32 | CCAAAGCAAUAUUACGUGAU | -3.5 ± 0.21 | -3.14 ± 0.24
33 | UACUAGCAAUAUUACGGACA | -0.57 ± 0.13 | -0.47 ± 0.16
34 | GGCAAGCAAUAUUACGAAGA | -2.24 ± 0.18 | -0.478 ± 0.12
35 | AGCAAGCAAUAUUACGUCGG | -2.93 ± 0.19 | -1.59 ± 0.19
36 | AAUUAGCAAUAUUACGACCC | – | 0.136 ± 0.36
37 | CUUGAGCAAUAUUACGACUC | – | -1.67 ± 0.42
38 | AACCAGCAAUAUUACGAAUG | -2.22 ± 0.089 | -1.89 ± 0.083
39 | CACUAGCAAUAUUACGUAGA | -3.01 ± 0.089 | -1.81 ± 0.096
40 | UUCAAGCAAUAUUACGCCAU | -3.57 ± 0.4 | -2.88 ± 0.43
41 | UAUCAGCAAUAUUACGGAUU | -0.839 ± 0.079 | 0.0545 ± 0.1
42 | AACUAGCAAUAUUACGAAUC | -2.81 ± 0.17 | -1.27 ± 0.19
43 | UAUAAGCAAUAUUACGUCAU | -3.37 ± 0.22 | -0.173 ± 0.15
44 | CCCAAGCAAUAUUACGGCCC | -2.39 ± 0.47 | –
45 | UCAUAGCAAUAUUACGUGGC | – | -2.73 ± 0.43
46 | CUUCAGCAAUAUUACGUUCG | -0.922 ± 0.067 | -0.372 ± 0.092
47 | UGCCAGCAAUAUUACGCAGC | – | -2.15 ± 0.42
48 | UUCUAGCAAUAUUACGCGUC | -3.14 ± 0.39 | -1.45 ± 0.25
49 | AACAAGCAAUAUUACGCCCG | -0.206 ± 0.11 | -0.347 ± 0.17
50 | GCUCAGCAAUAUUACGUCGU | -0.158 ± 0.057 | 0.486 ± 0.082
51 | ACGUAGCAAUAUUACGAGAC | -2.37 ± 0.3 | –
52 | UGCUAGCAAUAUUACGUGCC | – | -0.724 ± 0.3
